Experimental data taken from patent publication US20140322162A1.

What was measured:
[1] = target: H-ferritin binding sites (receptor) on bovine retinal endothelial cell (BREC) homogenate (bovine); experiment: saturation binding of 125I-rH-ferritin to BREC homogenate, global non-linear one-site fit
[2] = target: H-ferritin binding sites (receptor) on rat brain microvessels (rat); experiment: saturation binding of 125I-rH-ferritin to rat brain microvessels, global non-linear one-site fit

## recombinant human H-ferritin (from UniProt P02794 1-183) (ligand)
[1]
  Bmax (fmol/mg protein): 466
  Kd: 2.7 nM
[2]
  Bmax (fmol/mg protein): 573
  Kd: 7.9 nM
